This assay has as its target SARS-CoV-2 wild type RBD (319-541aa) (SARS-CoV-2, UniProt P0DTC2 319-541). Description: SPR.

B1: Bamlanivimab (antibody, V domains shown)
VH: QVQLVQSGAEVKKPGSSVKVSCKASGGTFSNYAISWVRQAPGQGLEWMGRIIPILGIANYAQKFQGRVTITADKSTSTAYMELSSLRSEDTAVYYCARGYYEARHYYYYYAMDVWGQGTAVTVSS
VL: not shown
B1 had a koff of 0.0014 s⁻¹.

Source of the values: paper PMC9569855 (2022).
